Experimental findings from publication PMC3774712, “Characterization of a Self-sufficient Trans-Anethole Oxygenase from Pseudomonas putida JYR-1” (PLoS ONE, 2013) are described below.

One data set deals with T1, GST-TAO (N175–348) (Pseudomonas putida, UniProt H8Y0R3).
T1 construct: C-terminal fragment residues 175-348 (plasmid pGEX-TAO (C174)), N-terminal GST tag kept, expressed in E. coli BL21(DE3), purified
T1 sequence (H8Y0R3 175-348): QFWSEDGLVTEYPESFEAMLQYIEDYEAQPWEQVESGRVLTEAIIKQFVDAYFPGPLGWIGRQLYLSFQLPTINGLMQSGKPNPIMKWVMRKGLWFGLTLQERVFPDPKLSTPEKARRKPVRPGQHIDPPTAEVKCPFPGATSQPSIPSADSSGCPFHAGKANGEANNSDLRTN
Kind of data set: ultrafiltration, fluorescence of unbound FAD. Format: binding. The following applies: 3 µM FAD, 3 µM enzyme, 20 mM Tris-HCl pH 8.0, 25°C. The source says:
ultrafiltration, fluorescence of unbound FAD on GST-TAO (N175–348)

In the next data set the target is T2, GST-TAO (N1–104) (Pseudomonas putida, UniProt H8Y0R3).
T2 construct: N-terminal fragment residues 1-104, N-terminal GST tag kept, expressed in E. coli BL21(DE3), purified
T2 sequence (H8Y0R3 1-104): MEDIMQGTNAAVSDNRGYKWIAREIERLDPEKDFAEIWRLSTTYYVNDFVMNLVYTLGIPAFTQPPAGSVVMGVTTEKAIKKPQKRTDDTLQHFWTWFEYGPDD
Kind of data set: ultrafiltration, fluorescence of unbound FAD. Format: binding. Conditions: 3 µM FAD, 3 µM enzyme, 20 mM Tris-HCl pH 8.0, 25°C. The source says: ultrafiltration, fluorescence of unbound FAD on GST-TAO (N1–104)

In another data set the target is T3, GST-TAO (N1–261) (Pseudomonas putida, UniProt H8Y0R3).
T3 construct: N-terminal fragment residues 1-261, N-terminal GST tag kept, expressed in E. coli BL21(DE3), purified
T3 sequence (H8Y0R3 1-261): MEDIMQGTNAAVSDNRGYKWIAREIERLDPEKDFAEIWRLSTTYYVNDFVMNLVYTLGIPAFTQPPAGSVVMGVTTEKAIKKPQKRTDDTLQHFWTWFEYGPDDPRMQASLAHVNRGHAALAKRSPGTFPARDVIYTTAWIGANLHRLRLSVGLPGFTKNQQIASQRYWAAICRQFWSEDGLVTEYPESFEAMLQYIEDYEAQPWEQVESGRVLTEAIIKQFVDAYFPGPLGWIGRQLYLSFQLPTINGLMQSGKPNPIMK
Kind of data set: ultrafiltration, fluorescence of unbound FAD. Format: binding. The following applies: 3 µM FAD, 3 µM enzyme, 20 mM Tris-HCl pH 8.0, 25°C. The source says: ultrafiltration, fluorescence of unbound FAD on GST-TAO (N1–261)

The target in the next data set is T4, GST-TAO (N1–304) (Pseudomonas putida, UniProt H8Y0R3).
T4 construct: N-terminal fragment residues 1-304, N-terminal GST tag kept, expressed in E. coli BL21(DE3), purified
T4 sequence (H8Y0R3 1-304): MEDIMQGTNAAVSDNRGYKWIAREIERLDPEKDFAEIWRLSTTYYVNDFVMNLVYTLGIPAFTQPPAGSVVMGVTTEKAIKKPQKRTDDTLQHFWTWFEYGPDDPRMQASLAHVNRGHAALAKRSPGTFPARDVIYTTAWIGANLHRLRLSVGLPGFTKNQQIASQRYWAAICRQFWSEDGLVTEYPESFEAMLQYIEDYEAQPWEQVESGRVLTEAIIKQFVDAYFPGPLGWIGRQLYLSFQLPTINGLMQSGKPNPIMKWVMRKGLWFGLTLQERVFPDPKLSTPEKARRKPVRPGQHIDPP
Kind of data set: ultrafiltration, fluorescence of unbound FAD. Format: binding. The following applies: 3 µM FAD, 3 µM enzyme, 20 mM Tris-HCl pH 8.0, 25°C. The source says: ultrafiltration, fluorescence of unbound FAD on GST-TAO (N1–304)

The target of data set [1] is T5, GST-TAO (wild-type, N1-348) (Pseudomonas putida, UniProt H8Y0R3).
T5 construct: full length TAO (348 aa, 39,328 Da calculated), N-terminal GST tag kept (pGEX-5X-1), expressed in E. coli BL21(DE3), GSTrap purified, 68 kDa on SDS-PAGE
T5 sequence (H8Y0R3 1-348): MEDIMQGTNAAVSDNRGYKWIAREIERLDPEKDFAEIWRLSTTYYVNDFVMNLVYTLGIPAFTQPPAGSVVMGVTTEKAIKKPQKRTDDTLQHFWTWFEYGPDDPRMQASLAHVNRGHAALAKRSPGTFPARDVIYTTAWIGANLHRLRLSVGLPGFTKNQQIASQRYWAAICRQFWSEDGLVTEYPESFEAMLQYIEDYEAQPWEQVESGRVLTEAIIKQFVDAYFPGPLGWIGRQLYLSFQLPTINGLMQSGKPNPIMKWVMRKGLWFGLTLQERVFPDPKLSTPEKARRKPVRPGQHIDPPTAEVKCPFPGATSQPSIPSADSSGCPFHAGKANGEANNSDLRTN
Kind of data set: ultrafiltration, fluorescence of unbound FAD. Format: binding. The following applies: 3 µM FAD, 3 µM enzyme, 20 mM Tris-HCl pH 8.0, 25°C. The source says:
ultrafiltration, fluorescence of unbound FAD on GST-TAO (wild-type, N1-348)

Another data set deals with T6, GST-TAO (N1–174) (Pseudomonas putida, UniProt H8Y0R3).
T6 construct: N-terminal fragment residues 1-174, N-terminal GST tag kept, expressed in E. coli BL21(DE3), purified
T6 sequence (H8Y0R3 1-174): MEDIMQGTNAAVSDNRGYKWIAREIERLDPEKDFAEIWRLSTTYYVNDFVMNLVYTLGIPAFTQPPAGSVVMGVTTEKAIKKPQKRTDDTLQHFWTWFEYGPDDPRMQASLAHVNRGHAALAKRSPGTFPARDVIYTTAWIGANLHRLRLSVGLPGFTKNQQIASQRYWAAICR
Kind of data set: ultrafiltration, fluorescence of unbound FAD. The following applies: 3 µM FAD, 3 µM enzyme, 20 mM Tris-HCl pH 8.0, 25°C. Format: binding. The source says:
ultrafiltration, fluorescence of unbound FAD on GST-TAO (N1–174)

Substrate in data set [2]: CC=Cc1ccc2c(c1)OCO2
Kind of data set: purified protein. Conditions: 10 mM NADH, 15 µM FAD, pH 8.0, 30°C, formate dehydrogenase regeneration.

Substrate in data set [3]: CC=Cc1ccc(O)c(OC)c1
Kind of data set: purified protein. The following applies: 10 mM NADH, 15 µM FAD, pH 8.0, 30°C, formate dehydrogenase regeneration.

Substrate in data set [4]: C/C=C/c1ccc(OC)c(OC)c1
Kind of data set: purified protein. The following applies: 10 mM NADH, 15 µM FAD, pH 8.0, 30°C, formate dehydrogenase regeneration.

Substrate in data set [5]: C/C=C/c1ccc(OC)cc1
Kind of data set: HPLC of p-anisaldehyde product, Michaelis-Menten nonlinear regression. Format: biochemical, Pseudomonas putida. The following applies: 10 mM NADH, 15 µM FAD, pH 8.0, 30°C, formate dehydrogenase regeneration, text b30 prints 64.70±2.40. The source says:
HPLC of p-anisaldehyde product, Michaelis-Menten nonlinear regression on GST-TAO (wild-type, N1-348)

What is called Km is the substrate concentration at which the rate is half of its maximum. In general, Vmax refers to the top rate of the reaction or transport when substrate is in excess. Usually kcat stands for the number of substrate molecules converted per active site and unit of time at saturation. Usually kcat/Km stands for the turnover number divided by the Michaelis constant.

For `Cc1cc2nc3c(=O)[nH]c(=O)nc-3n(C[C@H](O)[C@H](O)[C@H](O)COP(=O)(O)OP(=O)(O)OC[C@H]3O[C@@H](n4cnc5c(N)ncnc54)[C@H](O)[C@@H]3O)c2cc1C` [FAD], the “μM FAD/μM enzyme” value on GST-TAO (N175–348) is 0.02±0.02 µM FAD/µM enzyme; at GST-TAO (N1–104) it was 0.20±0.01 µM FAD/µM enzyme; on GST-TAO (N1–261), 0.15±0.04 µM FAD/µM enzyme; on GST-TAO (N1–304), 0.19±0.04 µM FAD/µM enzyme; in [1], 0.30±0.05 µM FAD/µM enzyme; at GST-TAO (N1–174), 0.18±0.03 µM FAD/µM enzyme.

B1: GST-TAO (wild-type, N1-348) (Pseudomonas putida) (protein)
chain: T5 sequence (H8Y0R3 1-348)
notes: full length TAO (348 aa, 39,328 Da calculated), N-terminal GST tag kept (pGEX-5X-1), expressed in E. coli BL21(DE3), GSTrap purified, 68 kDa on SDS-PAGE
Regarding B1, in the data set “purified protein [2]”, the Michaelis-Menten constant (Km) stood at 229.50 ± 32.10 µM, the maximum rate (Vmax) amounted to 0.26 µmol/min/mg, the kcat came to 0.56 s⁻¹ and the specificity constant (kcat/Km) was 2450 M⁻¹ s⁻¹. Also, in the data set “purified protein [3]”, the Km was found to be 2255.00 ± 346.48 µM, the Vmax worked out at 0.52 µmol/min/mg, the catalytic constant (kcat) turned out to be 1.13 s⁻¹ and the kcat/Km amounted to 500 M⁻¹ s⁻¹. For the same molecule, in the data set “purified protein [4]”, the Km was 225.65 ± 22.27 µM, the Vmax was determined as 0.06 µmol/min/mg, the catalytic constant (kcat) turned out to be 0.13 s⁻¹ and the catalytic efficiency (kcat/Km) worked out at 560 M⁻¹ s⁻¹. Also, in [5], the Michaelis constant (Km) is 63.70 ± 2.40 µM, the Vmax came to 0.23 µmol/min/mg, the kcat is 0.49 s⁻¹ and the catalytic efficiency (kcat/Km) came to 7690 M⁻¹ s⁻¹.
